Source: the supplement of paper PMC10567573

B1: STK38L (parent)
chain: RQLAYSTVGTPDYIAPEVFMQTGY
B2: FCHO1 (parent)
chain: HLELTRKLQDLIKDVLRYGEEQLK

Variants of: B1
Assay: protein stability index of a GFP-peptide fusion (GPS, HEK-293T) (PSI 1-6); higher = more stable
Conditions: c terminus: a fixed tail appended
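Note: lentivirally expressed fusions sorted by FACS into six bins by GFP to DsRed ratio, PSI derived from sequencing read proportions per bin multiplied by bin number.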

Protein stability index, by site and new letter:
Q2: Y 1.88; E 2.3; V 1.46; I 1.61; G 1.84; K 2.54; P 2.5; R 3.34; T 2.53; N 2.16; L 1.7; S 2.4; D 2.69; C 2.42; M 2.03; F 2.55; A 2.45; W 1.27; H 1.79
G9: C 1.97; L 3.14; H 2.42; K 2.24; E 2.71; I 2.17; A 2.63; D 3.15; F 2.27
T7: Q 3.12; I 2.04; F 1.62; G 2.62; H 2.44; E 3.02; N 2.51; A 2.76; R 2.52; M 1.84; V 2.04; L 2.1; W 1.79; S 2.11; D 2.26; Y 2.07; C 2.07; K 2.41; P 3.26
V8: D 3.27; M 2.87; Q 2.63; G 2.76; S 2.6; N 2.41; P 2.51; R 2.25; T 2.83; Y 1.74; H 2.92; K 2.98; I 2.58; A 2.59; C 1.49; L 2.37; E 3.29; F 2.18; W 2.5
A4: I 1.77; Y 2.17; H 2.61; N 2.52; Q 3.1; T 2.55; R 2.75; W 1.64; E 2.8; L 2.69; S 2.65; D 2.38; P 2.39; C 2.14; M 2.6; F 1.89; G 2.86; K 3.29; V 2.02
Y5: T 2.51; K 2.58; Q 3.43; A 3.06; R 2.81; I 2.83; N 3.26; V 2.36; M 2.95; P 3.42; G 3.03; S 2.93; E 3.13; W 2.13; D 3.59; H 3.07; C 2.38; L 2.84; F 2.44
L3: A 2.55; E 3.15; I 2.24; R 3.09; N 2.56; Y 2.41; T 2.84; M 2.72; D 3.37; V 2.73; G 2.74; K 2.68; S 2.65; P 2.44; W 1.53; Q 2.61; H 2.43; F 2.33; C 2.06
R1: D 2.71; M 1.79; N 2.82; P 3.41; V 2.45; E 3.06; Y 2.51; K 2.71; G 1.95; I 1.15; H 2.38; T 2.56; W 2.84; A 2.38; F 3.13; S 2.38; L 1.87; Q 2.47; C 2.06
S6: T 2.21; P 2.44; N 2.46; K 2.43; V 1.45; Q 2.25; R 2.79; F 1.65; I 1.78; E 3.3; A 1.95; C 1.84; G 2.32; L 2.08; D 2.55; Y 1.77; W 2.5; M 1.79; H 2.63

Variants of: B2
Assay: as above
Conditions: c terminus: a fixed tail appended

Protein stability index: each site, then its substitutions
L23: H 2.15; Q 2.06; N 2.61; I 3.49; R 2.44; C 1.09; F 3.59; D 2.53; T 3.42; K 2; G 2.57; A 2.36; E 2.24; P 1.73; Y 2.29; S 2.31
V15: M 3.23; H 1.83; S 1.88; E 3.18; I 2.96; F 2.12; D 4.22; N 2.98; R 2.74; K 1.87; W 3.69; P 2.27; G 2.15; A 2.98; Q 2.49
K24: I 2.67; M 2.79; S 2.66; N 3.69; E 1.44; C 1.63; Q 2.48; L 2.8; Y 2.8; H 3.16; V 4.54; D 1.84; F 2.05; T 1.6; A 1.59; P 2.02; G 1.01
R17: Q 2.26; Y 2.08; E 1.76; A 1.97; F 3.06; I 1.54; T 1.54; D 1.73; M 1.98; V 2.61; L 2.88; N 2.64; P 2.95; G 1.58; C 1.83; H 3.28; S 1.46
Y18: S 1.82; H 2.12; G 1.83; F 2.25; P 2.42; E 1.77; N 1.84; M 2.65; K 3.41; L 2.53; Q 3.96; D 2.63; C 1.61; R 2.27; A 2.74; T 1.88; V 3.06
D14: R 3.44; V 3.29; F 1.77; Y 2.66; N 2.76; I 2.7; L 1.99; M 1.3; P 2.97; Q 4.72; S 3.79; K 4.59; H 3.31; E 2.9; G 1.68
G19: K 1.59; N 2.18; F 2.83; C 1.4; R 2.53; L 2.03; D 2.09; P 1.78; Y 1.75; Q 1.59; S 1.52; T 3.25; I 2.01; M 1.97; V 2.02; E 1.88; H 2.29; A 2.5; W 3.49
Q22: M 1.91; D 2.43; G 2.62; S 1.84; A 1.68; E 2.37; L 2.14; R 3.19; C 1.59; V 2.32; F 2.07; I 2.21; Y 3.18; H 2.41; P 1.79
E21: D 1.81; I 3.67; M 3.24; Y 3.04; H 2.76; T 2.8; W 1.81; R 2.43; N 3.29
L16: F 2.77; I 2.39; C 2.91; V 4.13; M 2.69; D 3.32; R 1.69; P 2.9; K 1.44; N 2.82; S 2.09; T 2.25; W 3.05; H 2.73; Q 2.54; A 1.04; E 3.18; G 2.61; Y 1.93
E20: G 2.66; S 3.54; W 3.32; P 2.51; A 2.69; K 1.7; M 2.81; C 2.57; H 2.58; T 1.74; I 3.44; D 3.65; V 3.74; Y 2.65
